These results are taken from US20120087949, “OLIGONUCLEOTIDE MICELLES” (University of Florida Research Foundation, Inc., published 2012).

As a reminder, the Kd is the constant that tells how readily two partners part at equilibrium.

The test system of data set [1] is unidentified cell-surface target of sgc8 on CCRF-CEM cells. The note with it: 5'-diacyl lipid-(PEG)4, membrane anchored; CITED; value for sgc8 aptamer; CEM cell aggregation with lipo-sgc8-TMR shown here (FIG. 13A); cited from earlier work.
In data set [2] the target is T1, IGHM (immunoglobulin heavy mu chain), on Ramos cells (UniProt P01871 P01871:1-474). Description: flow; Ramos cells; based on lipid unit concentration; 0.116 nM if 1000 copies per micelle. The note with it: tags: endogenous on Ramos cells (ATCC CRL-1596); chain copies: 2; label: 3'-FAM.
T1 sequence (P01871 whole entry, one chain of several): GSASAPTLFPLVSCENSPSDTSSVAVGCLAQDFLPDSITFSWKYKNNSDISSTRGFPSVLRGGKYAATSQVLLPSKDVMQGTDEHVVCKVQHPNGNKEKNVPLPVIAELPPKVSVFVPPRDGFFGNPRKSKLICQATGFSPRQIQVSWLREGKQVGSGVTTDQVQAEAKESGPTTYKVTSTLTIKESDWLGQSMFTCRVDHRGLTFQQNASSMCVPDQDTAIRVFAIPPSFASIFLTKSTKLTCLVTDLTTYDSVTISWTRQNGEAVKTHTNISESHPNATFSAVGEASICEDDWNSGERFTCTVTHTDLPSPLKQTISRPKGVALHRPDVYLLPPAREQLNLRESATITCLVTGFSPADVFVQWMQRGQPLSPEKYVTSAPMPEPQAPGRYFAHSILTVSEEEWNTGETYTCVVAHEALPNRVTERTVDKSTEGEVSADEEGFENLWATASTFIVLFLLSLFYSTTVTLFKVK
Data set [3] has as its target T1, IGHM (immunoglobulin heavy mu chain), …. Description: flow; free TDO5 on Ramos cells; compared with micelle; elsewhere quoted as 74 nM (p179, CITED). As to conditions: tags: endogenous on Ramos cells (ATCC CRL-1596); chain copies: 2; label: FITC.

For “TTTTTTTATCTAACTGCTGCGCCGCCGGGAAAATACTGTACGGTTAGA [Lipo-sgc8-TMR]”, the Kd in data set [1] is 0.8 nM. Regarding AACACCGGGAGGATAGTTCGGTGGCTGTTCAGGGTCTCCTCCCGGTGA (ssDNA, 5'-diacyl lipid tail-(CH2CH2O)24; self-assembled micelle) [TDO5-micelle (lipid-TDO5)], in data set [2], the Kd worked out at 116 nM. In data set [3], AACACCGGGAGGATAGTTCGGTGGCTGTTCAGGGTCTCCTCCCGGTGA (ssDNA) [TDO5] displayed a dissociation constant Kd of 88 nM.
